Source: the NTF2 design screens of Basanta et al. (2020)

Assay: protease stability score; higher = more stable; yeast display proteolysis, trypsin and chymotrypsin;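 also: relative to predicted unfolded state with 0 unfolded-like and 1 meaning tenfold more protease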

## DDHETEMIHWAELFAELIRTGDEEKLDKLLDPNVKIDINGRKFHGRESMRFALKHLRIHHVEIDDLKVQGDKSFWIGFVEGQIDGQRDRRHSTIELLLVNGRIKSVQLEFR
  protease stability score: 1.61

## DDHHEELRKFVEELSRARETGDEELIESLIDPHVKINVGDKRLHGRRAVEILLHEWRVHFFHSERMEVYGDKARIEGHMNGEYNGRRHETKLEMYVHKVNGKWILQHFTVE
  protease stability score: 2.17

## DDHHELLKRMMDIIKEQFLTGDWEEHRRMADPHVKVIINGVQLIGWEHIRRFEEEMRRQWRIHHVEDKDERYFEGRAHVHSEIDGEFDGKREIHHSVIHLHVVNGRLKRLELRFE
  protease stability score: 1.28

## DDHHEVARKIFFHHYNITQTGDEESIERLLDPNVRIIIDGKYIHGWEEILRLIRHIRIHRFNVHRVELQGEKLILDGFTDGSFDGKRITTTIDIYILKIDGRWFIQQIELR
  protease stability score: 1.46

## DDHKKLVDEMIRIVLEELKTGNEETFNKLADPNVKVEWNGVDNHGREEVEEWWREYREVLGVDVIHIELKHVDPQGDKARIDGIIVETQGEKHHSFRAHIIIVVVNGRMHSIHERRR
  protease stability score: 0.881

## DDHKKRVDHLLRELLHHWRTGDFEHIYKLADPHVRFHIQIGEFHHEAVGWDEVVRLIQTHLDQLGVDHLRIRRVKSQGDKLYIETESYIGDFRIEFHIIWIVVNGRLKEQRMHIHEG
  protease stability score: 1.45

## DDHRDRLEHHASEFITAMLTGNWERLYQLVDPHVRLEIHVNGRKQHRVGREEFWTQWQKFVEDFGIDHSHLDRMEVIGNKMHAEFNIRVGDKRFILELHVIIVNGRISEVRVDFR
  protease stability score: 2.15

## DDHSSARKFADEFREMMKTGDSTKADELFDPNVRVEVGDKRYHGREQAVDWIRHLVDRYDHIEIRIDHITVRGDRISIVFTVHYEKNGETTYDRYVMVAVDRNGRAQIKMLRKG
  protease stability score: 2.09

## DDIDEHAETVVDHLIRSQMTGNEELFQHLADPHARLDINGKEYVGRELVSKIITHLRIHFLEIQFLHVQGDKVTIDVKIRGKVDGRTETSDQRLILVKINGKWLLTEIEVG
  protease stability score: 1.03

## DDIDHFLLEIVLRFIEDNLTGNEDNLRKMADPDTRIFIHIGEKEFRIHGREAWTEWILTIVDHMRMRLNIRRLEWQGDKARITQEQDIHVGNKTHTTEVELHIVIIDGKMHTVHVELR
  protease stability score: 1.36

## DDIEEDVKEFLRLMKEMNETGDEHRLTEMADPNVRVHIGDKHFHGREDAERLWRRADVFHHIKIKEYELQGDKLYMNVEVDGKFDGKRIRHDVTEIVTKVNGRWLLRSIRFD
  protease stability score: 0.577

## DDIEEILKEAFERLIHDLRTGNEDNLRSLIDPNVRLNWNGQELHGREHVLELLTRIKNLRIEDWTTKDQRYQGDKIEMDGILHTRIGDKEIHLETHIHVRKVDGRWKIEQLDFR
  protease stability score: 2

## DDIEEILRRMTELFWRALATGDEREERELADPHVRLDVNGRTYHGMEKVREWYRRIDHHHFETWHYHHIEFQGEKVYIEGRMRVNLDINGQELRIDTFTIILMLVINGRIHRFQYQVH
  protease stability score: 0.467

## DDIEETFRHYLDQWIRDLRTGDEEALYRLADPNARHKINGQHLHGRELHDHEFNRIKNLKVDFVTRDIRIIGDKLIIHGEMIIRINGRQISIDTEIYLRKIDGRWFVEQVNVG
  protease stability score: 0.305

## DDIEHDVKFFMERWVEAINTGDWKLLKKLVDPDAKFLIGDKELHGRELYVRHVLELRYRTEMIDNKIEVYDGRVHADMQVHSTLHIDGRNVDIHTHTRVVTRKVDGQWRLKSMEIL
  protease stability score: 0.993

## DDIEKDIREVLDILIRAFQTGDEDKILELFDPHARVDVGEYHNHGWERVEEWMHRVDHIDVRRLEIKHFHHINGRIVLHTHFDGILTINGREIHTETEVHIILVKINGKWYFKEISHH
  protease stability score: 2.12

## DDIEKDMERFTHVWLEAWRTGDEDLAKELFDPNTRVEQGDKKYHGRTEFVNLLSHIRIRDMRIHDIHYIVIDGKAIIDFDGELTIDVNGRFHRHRVIIHVEVIKINGQWEISQMRIEVR
  protease stability score: 1.11

## DDIEKLMLWALHLFSHALSTGNEELVIRLADPHYRLHIGDWESHGRENFRQFIHEIRMHMKRVDDRDIRVQGEFVRIEGELDGVIFIDGRTFRTRLDTRIILNKVDGRWFIHSNHVH
  protease stability score: 1.27

## DDIHRIIKTALELWLRVLETGDERLIHELLDPDARFVINGKFYHGREVWEEERRQIDHIRMDTFHLKHIDLVNGRLRIEGHIVFTVHVNGRTTRREEDVHFILTKFNGKWEMQSLNIE
  protease stability score: 1.15

## DDIKEESRHAHEEMLKIIKTGNEEVFEEMADPDVRIILDINGRDVRSHGREEAVRFWHEFMERVKGLRIHTDDLIVVGDKIELRIHSRYNGVRTHIRMIVSKFDGVWLLTELEIRVV
  protease stability score: 1.75
